For 20 sequences, Ka results are on record in patent US20100233714.

Series [1] has as its system IgG, polyclonal mixed human (Homo sapiens). The series is described as follows: filter. Conditions: pH 6, 41 mM Na+.
In series [2] the test system is IgG4, monoclonal human (Homo sapiens). Conditions: ultrafiltration, Picogreen, 37.5 mM NaCl, 3.75 mM Na citrate, pH 6.0.
The subject of series [3] is IgG Fc fragment (human) (Homo sapiens), P01857-1. Kind of series: filter. Conditions: pH 6, 41 mM Na+.
Series [4] concerns IgG1, monoclonal human (Homo sapiens). Kind of series: filter. As to conditions: pH 6, 41 mM Na+.
The test system of series [5] is IgG2, monoclonal human (Homo sapiens). Kind of series: filter. Conditions: pH 6, 41 mM Na+.
Series [6] has as its system IgG Fab2 fragment (mouse) (Mus musculus). Kind of series: filter. As to conditions: pH 6, 41 mM Na+.
Series [7] has as its system IgG3, monoclonal human (Homo sapiens). Kind of series: filter. Conditions: pH 6, 41 mM Na+.
Series [8] concerns IgA, monoclonal human (Homo sapiens). Kind of series: filter. Conditions: pH 6, 41 mM Na+.
Series [9] deals with IgG Fab2 fragment (human) (Homo sapiens). Kind of series: filter. Conditions: pH 6, 41 mM Na+.
Series [10] has as its system IgM, monoclonal human (Homo sapiens). The series is described as follows: filter. Conditions: pH 6, 41 mM Na+.
Series [11] has as its system IgG, polyclonal mouse (Mus musculus). Kind of series: filter. As to conditions: pH 6, 41 mM Na+.
Series [12] deals with IgG3, monoclonal human (Homo sapiens). As to conditions: ultrafiltration, Picogreen; 37.5 mM NaCl, 3.75 mM Na citrate, pH 6.0.
The mark [13] stands for this setting: hexaethylene glycol (HEG, iSp18) linkers as loops.

Read-outs that look alike come from different tables or passages of the source.

Take TGGGCCGGTAACGGATTACCGTAAGGTCCC [RAD11]: the Ka in series [1] (pH5 8.31, pH7 6.85, pH8 6.85, Table 2 pH 6 6.51) was 7.64 log10 M-1.
As for “CCTCTTCTTTTTCTTCTCCTTTTTGGAGAAG [RAD2 (triplex 31mer)]”, the Ka in [2] is 7.08 log10 M-1; in series [3], 5.86 log10 M-1; in series [4], 7.04 log10 M-1; in series [5], 7.06 log10 M-1; in series [6] it was 6.71 log10 M-1; in series [7] it was 6.64 log10 M-1. Further, the Ka in [8] is 6.9 log10 M-1; in series [1] (pH5 8.74, pH7 6.96, pH8 6.57, Table 2 pH 6 6.96) it was 7.61 log10 M-1; in [9], 6.45 log10 M-1; in series [10], 6.73 log10 M-1; in [11] it was 7.49 log10 M-1.
Consider CTCTCTCTTTTTCTCTCTCTTTTTGAGAGAG [RAD9], for which the Ka in series [2] is 7.06 log10 M-1; in [12], 6.62 log10 M-1; in series [3] it was 5.87 log10 M-1; in [4], 7.05 log10 M-1; in [5], 7.05 log10 M-1; in [6], 6.75 log10 M-1. In addition, the Ka in series [8] is 6.95 log10 M-1; in series [1] (pH5 8.67, pH7 7.04, pH8 6.94, Table 2 pH 6 7.02) it was 7.74 log10 M-1; in [9] it was 6.44 log10 M-1; in series [10], 6.79 log10 M-1; in [11], 7.46 log10 M-1.
For TTTTCGCGCGTACGCGCGCGAA [RAD15], the Ka in series [2] is 6.13 log10 M-1; in series [12], 6.22 log10 M-1; in series [4], 6.39 log10 M-1; in series [5], 6.18 log10 M-1; in [6] it was 6.21 log10 M-1; in [8], 6.23 log10 M-1. In addition, the Ka in series [1] (pH5 7.65, pH7 6.33, pH8 6.19) was 7 log10 M-1; in [9], 5.33 log10 M-1; in series [10], 6.19 log10 M-1; in series [11], 6.35 log10 M-1.
For the sequence GAGTGAGTCTCAGTTAGTTTCGATTGATTCT [RAD5], in series [1] (pH5 8.75, pH7 7.11, pH8 6.81, Table 2 pH 6 6.82), the Ka was 8.03 log10 M-1.
Turning to GGTTGGTTTGGTTGG [RAD13], the Ka in [1] (pH5 7.55, pH7 6.46, pH8 6.53) was 6.96 log10 M-1.
On to CCTTCCTTTGGAAGGTTG [RAD23], for which the Ka in [2] is 5.97 log10 M-1; in [4], 6.14 log10 M-1; in [5], 6.86 log10 M-1; in series [6], 6.33 log10 M-1; in [7], 5.62 log10 M-1; in series [8] it was 6.38 log10 M-1. Further, the Ka in [1] (pH5 7.37, pH7 6.31, pH8 6.21) is 6.88 log10 M-1; in series [9], 5.64 log10 M-1; in series [10] it was 6.08 log10 M-1; in [11], 6.77 log10 M-1.
As for CCTCTTCCTTCTCCGGAGAAG [RAD1], the Ka in series [2] (hexaethylene glycol (iSp18) linkers between the three segments) was 6.37 log10 M-1.
Turning to TTTTCGCGTGTGTGCGCGAA [RAD12], the Ka in series [1] (pH5 7.61, pH7 6.37, pH8 5.74) is 6.98 log10 M-1.
As for TTTTCGCGCGTTAACGCGCGAA [RAD16], the Ka is 6.54 log10 M-1 in series [2]; 6.31 log10 M-1 in [12]; 6.87 log10 M-1 in series [4]; 6.11 log10 M-1 in [5]; 6.11 log10 M-1 in series [6]; 6.46 log10 M-1 in series [8]. Also, the Ka is 7.8 log10 M-1 in [1] (pH5 8.22, pH7 7.25, pH8 6.79); 6.23 log10 M-1 in series [9]; 6.26 log10 M-1 in [10]; 7.07 log10 M-1 in series [11].
Regarding CGCGAAAACGCG [RAD22], the Ka in series [1] (pH5 5.95, pH7 6.04, pH8 5.97) was 6.25 log10 M-1.
On to GGAAAGGTTTTTGGAAAGGTTTTTCCTTTCC [RAD6], for which the Ka in [1] (pH5 8.50, pH7 6.86, pH8 6.74, Table 2 pH 6 6.84) was 7.96 log10 M-1.
With TGGGCCGGTAACGGGTTACCGTAAGGTCCC [RAD10], the Ka in series [2] was 7 log10 M-1; in [12] it was 6.62 log10 M-1; in [3], 5.92 log10 M-1; in series [4] it was 7.04 log10 M-1; in series [5] it was 7.01 log10 M-1; in [6], 6.76 log10 M-1. Besides, the Ka in series [8] was 6.92 log10 M-1; in series [1] (pH5 8.41, pH7 6.81, pH8 6.72, Table 2 pH 6 6.31), 7.65 log10 M-1; in series [9], 6.43 log10 M-1; in [10] it was 6.7 log10 M-1; in series [11] it was 7.53 log10 M-1.
For the sequence GAGAGAGTTTTTGAGAGAGTTTTTCTCTCTC [RAD7], the Ka was 7.16 log10 M-1 in series [2]; 5.99 log10 M-1 in [3]; 7.3 log10 M-1 in series [4]; 7.25 log10 M-1 in [5]; 6.97 log10 M-1 in [6]; 6.74 log10 M-1 in series [7]. In addition, the Ka in series [8] was 7.33 log10 M-1; in series [1] (pH5 8.51, pH7 6.97, pH8 6.79, Table 2 pH 6 6.86), 8.04 log10 M-1; in series [9], 6.68 log10 M-1; in [10] it was 6.89 log10 M-1; in series [11] it was 7.69 log10 M-1.
On to TGGAGTCTGCGCGAGTCAGCGCTCAAGATC [RAD8], for which, in series [1] (pH5 8.41, pH7 6.86, pH8 6.84, Table 2 pH 6 6.13), the Ka is 7.85 log10 M-1.
For the sequence CCTCTTCTTTTTCTTCTC [RAD20], the Ka in [2] was 7.67 log10 M-1; in series [3], 5.96 log10 M-1; in series [4], 7.34 log10 M-1; in series [5], 7.85 log10 M-1; in series [6] it was 7.41 log10 M-1; in series [7] it was 6.84 log10 M-1. Moreover, the Ka is 7.53 log10 M-1 in series [8]; 7.98 log10 M-1 in series [1] (pH5 8.11, pH7 7.40, pH8 6.64); 6.9 log10 M-1 in series [9]; 7.02 log10 M-1 in series [10]; 8.3 log10 M-1 in series [11].
For CCTCTTCHEGCTTCTCCHEGGGAGAAG [RAD1], the Ka in [3] (setting [13]) was 5.8 log10 M-1; in series [4] (setting [13]), 6.38 log10 M-1; in series [5] (setting [13]) it was 6.51 log10 M-1; in series [6] (setting [13]), 6.38 log10 M-1; in series [7] (setting [13]), 6.17 log10 M-1; in series [8] (setting [13]), 6.37 log10 M-1. The Ka was 6.51 log10 M-1 in [1] (hexaethylene glycol (HEG, iSp18) linkers as loops, ultrafiltration, pH5 7.45, pH7 6.49, pH8 6.30, Table 2 (0.15 M NaCl, 1 mM MgCl2, pH 6) 7.01); 5.82 log10 M-1 in [9] (setting [13]); 6.32 log10 M-1 in series [10] (setting [13]); 6.6 log10 M-1 in [11] (setting [13]).
Turning to TTTGGTTGGTTTGGTTGG [RAD19], the Ka in [1] (inosine (I) at printed positions [inosine (written G): 4,14], pH5 7.82, pH7 6.50, pH8 6.04) was 7.14 log10 M-1.
Consider CCCTCCCTGGGCTTTTTTTGATTTTTCTTAA [RAD4], for which the Ka in series [2] is 7.13 log10 M-1; in series [3], 5.26 log10 M-1; in [4] it was 7.52 log10 M-1; in series [5] it was 7.67 log10 M-1; in series [6], 7.09 log10 M-1; in series [7], 6.66 log10 M-1. In addition, the Ka is 7.66 log10 M-1 in series [8]; 8.13 log10 M-1 in series [1] (pH5 8.48, pH7 7.10, pH8 7.02, Table 2 pH 6 6.89); 6.89 log10 M-1 in [9]; 6.89 log10 M-1 in [10]; 7.71 log10 M-1 in series [11].
TGGTTGGTTTTTGGAAGGATTTTTTCCTTCC [RAD3]: the Ka in [2] is 7.2 log10 M-1; in [3], 6.34 log10 M-1; in series [4] it was 7.45 log10 M-1; in series [5] it was 7.36 log10 M-1; in series [6], 7.09 log10 M-1; in [7] it was 6.69 log10 M-1. Besides, the Ka is 7.38 log10 M-1 in series [8]; 7.79 log10 M-1 in [1] (pH5 8.60, pH7 6.86, pH8 6.76, Table 2 pH 6 6.71); 6.97 log10 M-1 in series [9]; 6.71 log10 M-1 in series [10]; 7.69 log10 M-1 in [11].
